Measurements as given in JP2016028048A (dated 2016).

T1: ヒト組織因子経路インヒビター (human TFPI) (human, UniProt P10646 29-304, limits assumed)
T1 construct: Coated on Maxisorp plates (ELISA) or amine-coupled to a CM5 chip (Biacore); also called ヒトTFPI; hTFPI
T1 sequence (looked up): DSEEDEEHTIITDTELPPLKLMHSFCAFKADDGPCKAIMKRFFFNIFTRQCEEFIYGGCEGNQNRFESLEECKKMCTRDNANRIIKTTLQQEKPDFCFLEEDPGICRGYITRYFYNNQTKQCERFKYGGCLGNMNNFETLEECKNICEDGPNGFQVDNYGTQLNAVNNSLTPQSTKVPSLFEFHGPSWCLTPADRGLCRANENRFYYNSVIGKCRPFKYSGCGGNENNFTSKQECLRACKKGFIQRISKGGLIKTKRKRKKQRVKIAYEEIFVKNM


Target: T1, ヒト組織因子経路インヒビター (human TFPI)
Experiment: ELISA, Fab in bacterial lysate on human TFPI-coated plate

Row | binding result | Binder
1 | binds | TP-2G2 (Fab, V domains shown, Human Fab (HuCal Gold), made in E. coli TG1) VH: QVQLVESGGGLVQPGGSLRLSCAASGFTFSSYAMNWVRQAPGKGLEWVSAILSDGSSTSYADSVKGRFTISRDNSKNTLYLQMNSLRAEDTAVYYCARYPDWGWYTDVWGQGTLVTVSS VL: DIELTQPPSVSVAPGQTARISCSGDNIRKFYVHWYQQKPGQAPVLVIYGTNKRPSGIPERFSGSNSGNTATLTISGTQAEDEADYYCQSYDSKFNTVFGGGTKLTVLG
2 | binds | TP-2D7 (Fab, V domains shown, Human Fab (HuCal Gold), made in E. coli TG1) VH: QVQLQQSGPGLVKPSQTLSLTCAISGDSVSSNSAAWGWIRQSPGRGLEWLGLIYYRSKWYNDYAVSVKSRITINPDTSKNQFSLQLNSVTPEDTAVYYCARFGDTNRNGTDVWGQGTLVTVSS VL: not shown
3 | binds | TP-2G4 (Fab, V domains shown, Human Fab (HuCal Gold), made in E. coli TG1) VH: QVQLVESGGGLVQPGGSLRLSCAASGFTFSSYAMTWVRQAPGKGLEWVSNISYSGSNTYYADSVKGRFTISRDNSKNTLYLQMNSLRAEDTAVYYCARVGYYYGFDYWGQGTLVTVSS VL: DIELTQPPSVSVAPGQTARISCSGDALRKHYVYWYQQKPGQAPVLVIYGDNNRPSGIPERFSGSNSGNTATLTISGTQAEDEADYYCQSYDKPYPILVFGGGTKLTVLG
4 | binds | TP-2A2 (Fab, V domains shown, Human Fab (HuCal Gold), made in E. coli TG1) VH: QVQLVESGGGLVQPGGSLRLSCAASGFTFSNNAMNWVRQAPGKGLEWVSTISYDGSNTYYADSVKGRFTISRDNSKNTLYLQMNSLRAEDTAVYYCARQAGGWTYSYTDVWGQGTLVTVSS VL: DIELTQPPSVSVAPGQTARISCSGDNIRTYYVHWYQQKPGQAPVVVIYGDSKRPSGIPERFSGSNSGNTATLTISGTQAEDEADYYCQSYDSEADSEVFGGGTKLTVLG
5 | binds | TP-2G7 (Fab, V domains shown, Human Fab (HuCal Gold), made in E. coli TG1) VH: QVQLVESGGGLVQPGGSLRLSCAASGFTFNSYAMSWVRQAPGKGLEWVSNISSNSSNTYYADSVKGRFTISRDNSKNTLYLQMNSLRAEDTAVYYCARKGGGEHGFFPSDIWGQGTLVTVSS VL: DIELTQPPSVSVAPGQTARISCSGDNLGTYYVHWYQQKPGQAPVLVIYGDNNRPSGIPERFSGSNSGNTATLTISGTQAEDEADYYCQTYDSNNESIVFGGGTKLTVLG
6 | binds | TP-2A5.1 (Fab, V domains shown, Human Fab (HuCal Gold), made in E. coli TG1) VH: QVQLVESGGGLVQPGGSLRLSCAASGFTFSSYGSWVRQAPGKGLEWVSVISGSGSSTYYADSVKGRFTISRDNSKNTLYLQMNSLRAEDTAVYYCARVNISTHFDVWGQGTLVTVSS VL: DIELTQPPSVSVAPGQTARISCSGDNIPEKYVHWYQQKPGQAPVLVIHGDNNRPSGIPERFSGSNSGNTATLTISGTQAEDEADYYCQSFDAGSYFVFGGGTKLTVLG
7 | binds | TP-2G9 (Fab, V domains shown, Human Fab (HuCal Gold), made in E. coli TG1) VH: QVQLVESGGGLVQPGGSLRLSCAASGFTFNSYAMTWVRQAPGKGLEWVSAIKSDGSNTYYADSVKGRFTISRDNSKNTLYLQMNSLRAEDTAVYYCARNDSGWFDVWGQGTLVTVSS VL: DIALTQPASVSGSPGQSITISCTGTSSDLGGFNTVSWYQQHPGKAPKLMIYSVSSRPSGVSNRFSGSKSGNTASLTISGLQAEDEADYYCQSYDLNNLVFGGGTKLTVLG

More lines, now with the values behind:

Row | Binder | binding result
8 | TP-2C1 (Fab, V domains shown, Human Fab (HuCal Gold), made in E. coli TG1) VH: QVQLVESGGGLVQPGGSLRLSCAASGFTFSPYVMSWVRQAPGKGLEWVSSISSSSSNTYYADSVKGRFTISRDNSKNTLYLQMNSLRAEDTAVYYCARGDSYMYDVWGQGTLVTVSS VL: DIELTQPPSVSVAPGQTARISCSGDSIGSYYAHWYQQKPGQAPVLVIYYDSKRPSGIPERFSGSNSGNTATLTISGTQAEDEADYYCQAYTGQSISRVFGGGTKLTVLG | binds
9 | TP-3A2 (Fab, V domains shown, Human Fab (HuCal Gold), made in E. coli TG1) VH: QVQLVESGGGLVQPGGSLRLSCAASGFTFSNYYLSWVRQAPGKGLEWVSGISYNGSSTNYADSVKGRFTISRDNSKNTLYLQMNSLRAEDTAVYYCARMWRYSLGADSWGQGTLVTVSS VL: DIELTQPPSVSVAPGQTARISCSGDNIGSRYAYWYQQKPGQAPVVVIYDDSDRPSGIPERFSGSNSGNTATLTISGTQAEDEADYYCAAYTFYARTVFGGGTKLTVLG | binds
10 | TP-3A3 (Fab, V domains shown, Human Fab (HuCal Gold), made in E. coli TG1) VH: QVQLVESGGGLVQPGGSLRLSCAASGFTFNNNAISWVRQAPGKGLEWVSAINSSSSSTSYADSVKGRFTISRDNSKNTLYLQMNSLRAEDTAVYYCARGHHRGHSWASFIDYWGQGTLVTVSS VL: DIELTQPPSVSVAPGQTARISCSGDNIGSKYVHWYQQKPGQAPVVVIYEDSDRPSGIPERFSGSNSGNTATLTISGTQAEDEADYYCQSWDKSEGYVFGGGTKLTVLG | binds
11 | TP-3A4 (Fab, V domains shown, Human Fab (HuCal Gold), made in E. coli TG1) VH: QVQLVESGGGLVQPGGSLRLSCAASGFTFSSYWMHWVRQAPGKGLEWVSSISYDSSNTYYADSVKGRFTISRDNSKNTLYLQMNSLRAEDTAVYYCARYGGMDYWGQGTLVTVSS VL: DIELTQPPSVSVAPGQTARISCSGDNLRDKYASWYQQKPGQAPVLVIYSKSERPSGIPERFSGSNSGNTATLTISGTQAEDEADYYCSSYTLNPNLNYVFGGGTKLTVLG | binds
12 | TP-2F9 (Fab, V domains shown, Human Fab (HuCal Gold), made in E. coli TG1) VH: QVQLVESGGGLVQPGGSLRLSCAASGFTFYKYAMHWVRQAPGKGLEWVSGIQYDGSYTYYADSVKGRFTISRDNSKNTLYLQMNSLRAEDTAVYYCARYYCKCVDLWGQGTLVTVSS VL: not shown | binds
13 | TP-2B9 (Fab, V domains shown, Human Fab (HuCal Gold), made in E. coli TG1) VH: QVQLQQSGPGLVKPSQTLSLTCAISGDSVSSNSAAWGWIRQSPGRGLEWLGMIYHRSKWYNDYAVSVKSRITINPDTSKNQFSLQLNSVTPEDTAVYYCARYSSIGHMDYWGQGTLVTVSS VL: DIQMTQSPSSLSASVGDRVTITCRASQSIRSYLAWYQQKPGKAPKLLIYKASNLQSGVPSRFSGSGSGTDFTLTISSLQPEDFAVYYCHQYSDSPVTFGQGTKVEIKR | binds
14 | TP-2E3 (Fab, V domains shown, Human Fab (HuCal Gold), made in E. coli TG1) VH: QVQLQQSGPGLVKPSQTLSLTCAISGDSVSSNSAAWGWIRQSPGRGLEWLGMIYYRSKWYNDYAVSVKSRITINPDTSKNQFSLQLNSVTPEDTAVYYCARVNQYTSSDYWGQGTLVTVSS VL: DIALTQPASVSGSPGQSITISCTGTSSDIGGYNYVSWYQQHPGKAPKLMIYGVNYRPSGVSNRFSGSKSGNTASLTISGLQAEDEADYYCSSADKFTMSIVFGGGTKLTVLG | binds
15 | TP-2G5 (Fab, V domains shown, Human Fab (HuCal Gold), made in E. coli TG1) VH: QVQLQQSGPGLVKPSQTLSLTCAISGDSVSSNSAAWSWIRQSPGRGLEWLGFIYYRSKWYNDYAVSVKSRITINPDTSKNQFSLQLNSVTPEDTAVYYCARHNPDLGFDYWGQGTLVTVSS VL: not shown | binds
16 | TP-2H10 (Fab, V domains shown, Human Fab (HuCal Gold), made in E. coli TG1) VH: QVQLQQSGPGLVKPSQTLSLTCAISGDSVSSNGAAWGWIRQSPGRGLEWLGFIYRRSKWYNSYAVSVKSRITINPDTSKNQFSLQLNSVTPEDTAVYYCARQDGMGGMDSWGQGTLVTVSS VL: not shown | binds
17 | TP-2E5 (Fab, V domains shown, Human Fab (HuCal Gold), made in E. coli TG1) VH: QVQLQQSGPGLVKPSQTLSLTCAISGDSVSSNSAAWSWIRQSPGRGLEWLGMIFYRSKWNNDYAVSVKSRITINPDTSKNQFSLQLNSVTPEDTAVYYCARVNANGYYAYVDLWGQGTLVTVSS VL: DIQMTQSPSSLSASVGDRVTITCRASQPIYNSLSWYQQKPGKAPKLLIYGVSNLQSGVPSRFSGSGSGTDFTLTISSLQPEDFAVYYCLQVDNLPITFGQGTKVEIKR | binds
